Key:
Assay in all cases: two-hybrid
T25-HP0221 (NifU) = molecular target: T1, T25-HP0221 (NifU) (Helicobacter pylori strain 26695, UniProt O25009 2-326)
T1 sequence (looked up): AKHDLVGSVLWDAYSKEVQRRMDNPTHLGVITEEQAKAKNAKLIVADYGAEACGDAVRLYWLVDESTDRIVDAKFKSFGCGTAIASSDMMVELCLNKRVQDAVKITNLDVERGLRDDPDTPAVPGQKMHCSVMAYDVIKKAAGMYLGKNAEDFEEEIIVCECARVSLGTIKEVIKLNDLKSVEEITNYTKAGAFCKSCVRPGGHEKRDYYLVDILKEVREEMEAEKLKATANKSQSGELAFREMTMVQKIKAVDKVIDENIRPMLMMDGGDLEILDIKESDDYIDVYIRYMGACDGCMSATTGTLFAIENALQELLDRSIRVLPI

HP0221-T25 (NifU) = molecular target: T2, HP0221-T25 (NifU) (Helicobacter pylori strain 26695, UniProt O25009 2-326)
T2 sequence (looked up): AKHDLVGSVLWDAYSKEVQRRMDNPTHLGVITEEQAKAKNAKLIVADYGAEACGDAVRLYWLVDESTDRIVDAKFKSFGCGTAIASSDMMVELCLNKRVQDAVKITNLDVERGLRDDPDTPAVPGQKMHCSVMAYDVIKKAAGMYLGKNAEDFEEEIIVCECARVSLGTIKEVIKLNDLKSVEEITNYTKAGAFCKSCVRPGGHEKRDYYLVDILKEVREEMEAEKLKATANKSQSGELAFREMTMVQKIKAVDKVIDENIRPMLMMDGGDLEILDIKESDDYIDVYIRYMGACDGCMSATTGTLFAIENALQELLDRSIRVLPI

T25-HP1492 (Nfu) = molecular target: T3, T25-HP1492 (Nfu) (Helicobacter pylori strain 26695, UniProt O26025 2-89)
T3 sequence (looked up): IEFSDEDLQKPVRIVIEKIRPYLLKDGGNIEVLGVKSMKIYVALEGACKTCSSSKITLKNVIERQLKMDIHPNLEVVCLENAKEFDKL

T25-HP0220 (NifS) = T25-HP0220 (NifS) (Helicobacter pylori strain 26695, UniProt O25008 2-387)

B1: T18-HP0132 (natural protein, Helicobacter pylori strain 26695, UniProt P56072 2-455, looked up)
chain: ASFSILSIFKIGVGPSSSHTIGPMEAGARFCESLKGILEQVVRVQITLHGSLALTGKGHLSDEAVLIGLHGIYANELEVTTKKALLHEALENKVLKLANQHHIPFDYAKDLIFDNKPLTRHQNALILKAFNSKNEVLKEETYYSVGGGFVYTEKELDNLSEEDGNESIAYDFSSAKELLELCQKHQKSIAEIVRLRENALKNHPDATMVKIYHAMLECYDNGANSKERYLPGSLKVTRLAPSIKTRLEKHPTSGKDPLALIDYISLYARAIAEENASGGKVVTAPTNGACAVVPSVLLYAKNHLFENLSQKAINDFLLTSAAIGYLYKKNASLSGAEAGCQAEIGVASSMAAGGLAHLCQATTQQVLIASEIAMEHHLGLTCDPVGGLVQIPCIERNVLGAIKAISASKLALEDEYKPKVSLDEVIATMYATGKDMNEKYKETSLGGLAKTLKC
growth OD595 in M63-maltose (T25-HP0221 (NifU)): 0.21 OD595 | growth OD595 in M63-maltose (HP0221-T25 (NifU)): 0.14 OD595 | growth OD595 in M63-maltose (T25-HP1492 (Nfu)): 0.27 OD595

B2: T18-HP1089 (natural protein, Helicobacter pylori strain 26695, UniProt O25721 2-778, looked up)
chain: NLEKLFLEKTPLFVFSSTRRLKHFYLEQGEGFLPNAMSMGNFFEQAFYIPNKKKIPNSARLILMIDTIKAIAKEKKSILEGLLLFENSFLGYLESTSFLFDLFDELSSACIKLNELSSKDIYLDYEKHLEVLEMIYDRYIKKLEGLGFYDKIMQEKPAILKEFFEHFSSIEWHLDGFMSVFERQCLLEAAELVPITLHLSCDKYNQKFLEFLNLKLETDCDYSIDFKTQKILSQTPKRQKIEPKLYANSSYLKQSALVLQTIEEYLQKDNDPNKMAIITPNADFLPFLKLLDKNNNLNFAMGLGAKNSPYYTELVKILEDLETSDLDLSGSALLDLENITLALLEQQSSKEKAPLKEAHSQIMHQYHLLKDTLKNYSLKDLLHLYLQEFEANFRLDDSSGGKIRVMDTLETRGMQFDKIVIVDFNETCVPSLKDCDLFLNSALRKSLNLPTLLDKKNLQKHYYYQLFKNSKEITLSYIESETSKASNMLLELNLHIEPIKDAYTLFAPSPLKDYQEEEIKAAIPKDFSFSASSLNAFLTCKRRFYYHYIKRFKESPKDENNSAVGSLLHELLKEAYEKDKTPHALEERLIWLLETRENITPKERLDTLVVLKKIQAFYKKERERFNAEITILDLEKSFETIIQGVIFKGRIDRIDKTADNEIILLDYKFKSDLKLDSMSKTQRGGLSPIEIAQISTDYQMAIYAFALKNLGYKEPIKAFFYDLRKGELLEEEELILQAKMDHLEFSLIPKLKQEIDFEKTLEVKDCEYCSFKDMCNR
growth OD595 in M63-maltose (T25-HP0221 (NifU)): 0.26 OD595 | growth OD595 in M63-maltose (HP0221-T25 (NifU)): 0.29 OD595

B3: T18-HP0277 (natural protein, Helicobacter pylori strain 26695, UniProt O25054 2-84, looked up)
chain: SLLVNDECIACDACREECPSEAIEEGDPIYNIDPDRCTECYGYDDDEPRCVSVCPVDAILPDPNNAESKEELKYKYESLKEQD
growth OD595 in M63-maltose (T25-HP0220 (NifS)): 0.3 OD595 | growth OD595 in M63-maltose (T25-HP1492 (Nfu)): 0.4 OD595

B4: T18-HP0568 (natural protein, Helicobacter pylori strain 26695, UniProt O25292 2-255, looked up)
chain: PLELFEKVCKEVAPLTQMITLHVLGDPCKLKNLNHYLSTARRFSLKVDLVTSGVYLHDFETLLQDVIYQISISLDAGLDHRNKLNQHRYIQKILEFCRYKCEKNSEVFLNLRIQDSTLDKHQNLIKPFLESFECVSLEGLKTQGRARLFKKSFLNIQKTFKWPSLNAQNPLNQKSKIPYCYGLIKQIAILSNGVVVPCCMDTQANISLGDLNHTPLKDVLKSQKAMAIKTHFLKGEALELLCQNCSYPLIRYKK
growth OD595 in M63-maltose (T25-HP0221 (NifU)): 0.13 OD595 | growth OD595 in M63-maltose (HP0221-T25 (NifU)): 0.36 OD595 | growth OD595 in M63-maltose (T25-HP1492 (Nfu)): 0.14 OD595

B5: T18-HP1428 (natural protein, Helicobacter pylori strain 26695, UniProt O25970 2-357, looked up)
chain: KASIYDFTLKELSQLLKPSFRAKQLYLWLYAKYKTSFKDMQNNFSKDFIAYLEREFALRTIEITHVRESVDGSKKYLFKSLRDNHTFEAVLLKMKDKKIDAETNAILEREKYTVCVSCQIGCQVGCSFCFTQKGGFVRNLKASEIIQQALLIKEDNNLPLEKALNIVFMGMGEPLNNLDEVCKAIEIFNTGMQISPKRITISTSGVADKIPILAGKNLGVQLAISLHAVDDKTRSSLMPLNKKYNIECVLNEVRKWPLEQRKRVMFEYLLIKDLNDSLDCAKKLLKLLNGIKSKVNLILFNPHEGSKFERPSLENARMFADFLNSKGLLCTIRESKALDIEAACGQLREKKLSQQI
growth OD595 in M63-maltose (T25-HP0221 (NifU)): 0.15 OD595 | growth OD595 in M63-maltose (HP0221-T25 (NifU)): 0.27 OD595 | growth OD595 in M63-maltose (T25-HP1492 (Nfu)): 0.08 OD595

B6: T18-HP1268 (natural protein, Helicobacter pylori strain 26695, UniProt O25858 2-220, looked up)
chain: AKQEYKQLPKRAEVHSATEQFKDTVKTSLGLDLFKGLGLTIKEFFSPSVTIHYPMEQLPLSPRYRAVHNLQRLLDSGSERCIGCGLCEKICTSNCIRIITHKGEDNRKKIDSYTINLGRCIYCGLCAEVCPELAIVMGNRFENASTQRSQYGSKSEFLTSEQDAKNCSHAEFLGFGAVSPNYNERMQATPLDYVQEPSKEESQEETPTNPESNKGDENV
growth OD595 in M63-maltose (T25-HP0221 (NifU)): 0.33 OD595 | growth OD595 in M63-maltose (HP0221-T25 (NifU)): 0.22 OD595 | growth OD595 in M63-maltose (T25-HP1492 (Nfu)): 0.18 OD595

B7: T18-HP0666 (natural protein, Helicobacter pylori strain 26695, UniProt O25377 2-433, looked up)
chain: NENINENIFEEVGDACVKCAKCVPGCTIYRIHKDEATSPRGFLDLMRLNAQNKLQLDTNLKHLLETCFLCTACVEICPFHLPIDTLIEKAREKIAQKHGIAWYKKSYFSLLKNRKKMDRVFSTAHFLAPCVFKQVGDSLEPRAVFKGLFKRFKKSALPPLNQKSFLQKHAEMKLLENPIQKVAIFIGCLSNYHYQQVGESLLYILEKLNIQAIIPKQECCSAPAYFTGDKDTTLFLVKKNIEWFESYLDKVDAIIVPEATCASMLINDYYKVFLGEKDKDLYVKRLEKITPKIYLASVFLEKHTPLKSLLEKIPKGKKETITYHNPCHAKKTLNAHKEVRNLLNLHYEIKEMPDNCCGFGGITMQTQKAGFSLKVGLLRAKEIIDTKAAILSAECGACHMQLNNALKSLDDPNTPPFLHPLELIAKALKSAE
growth OD595 in M63-maltose (T25-HP0221 (NifU)): 0.48 OD595 | growth OD595 in M63-maltose (HP0221-T25 (NifU)): 0.11 OD595

B8: T18-HP0585 (natural protein, Helicobacter pylori strain 26695, UniProt O25307 2-218, looked up)
chain: KMGLKRAKTHQKAQQIKELLLKHYPNQTTELRHKNPYELLVATILSAQCTDARVNQITPKLFEKYPSVNDLALASLEEVKEIIKSVSYFNNKSKHLISMAQKVVRDFKGVIPSTQKELMSLDGVGQKTANVVLSVCFDANCIAVDTHVFRATHRLGLSNAKDPIKTEEELSDLFKDNLSKLHHALILFGRYTCKAKNPLCGACFLKEFCVSKASFKA
growth OD595 in M63-maltose (T25-HP0221 (NifU)): 0.21 OD595 | growth OD595 in M63-maltose (HP0221-T25 (NifU)): 0.15 OD595 | growth OD595 in M63-maltose (T25-HP1492 (Nfu)): 0.06 OD595

B9: T18-HP0221 (natural protein, Helicobacter pylori strain 26695, UniProt O25009 2-326, looked up)
chain: AKHDLVGSVLWDAYSKEVQRRMDNPTHLGVITEEQAKAKNAKLIVADYGAEACGDAVRLYWLVDESTDRIVDAKFKSFGCGTAIASSDMMVELCLNKRVQDAVKITNLDVERGLRDDPDTPAVPGQKMHCSVMAYDVIKKAAGMYLGKNAEDFEEEIIVCECARVSLGTIKEVIKLNDLKSVEEITNYTKAGAFCKSCVRPGGHEKRDYYLVDILKEVREEMEAEKLKATANKSQSGELAFREMTMVQKIKAVDKVIDENIRPMLMMDGGDLEILDIKESDDYIDVYIRYMGACDGCMSATTGTLFAIENALQELLDRSIRVLPI
growth OD595 in M63-maltose (T25-HP0220 (NifS)): 0.12 OD595 | growth OD595 in M63-maltose (T25-HP1492 (Nfu)): 0.08 OD595

B10: T18-HP0734 (natural protein, Helicobacter pylori strain 26695, UniProt O25434 2-439, looked up)
chain: QVKENKQLCLISLGCSKNLVDSEVMLGKLYNYTLTNDAKSADVILINTCGFIESAKQESIQTILNAAKDKKEGAILIASGCLSERYKDEIKELIPEVDIFTGVGDYDKIDIMIAKKQNQFSEQVFLSEHYNARIITGSSVHAYVKISEGCNQKCSFCAIPSFKGKLQSRELDSILKEVENLALKGYTDMTFIAQDSSSFLYDKGQKDGLIQLIRAIDKQQALKSARILYLYPSSTTLELIGAIESSPIFQNYFDMPIQHISDSMLKKMRRNSSQAHHLKLLDAMKQVKESFIRSTIIVGHPEENESEFEELSAFLDEFQFDRLNIFAFSAEENTHAYSLEKVPKKTINARIKALNKIALKHQNHSFKALLNKPIKALVENKEGEYFYKARDLRWAPEVDGEILINDSELTTPLKPGHYTIAPSEFKDNILLAKVLSPF
growth OD595 in M63-maltose (T25-HP0221 (NifU)): 0.4 OD595 | growth OD595 in M63-maltose (HP0221-T25 (NifU)): 0.48 OD595 | growth OD595 in M63-maltose (T25-HP1492 (Nfu)): 0.12 OD595

B11: T18-HP1540 (natural protein, Helicobacter pylori strain 26695, UniProt O26065 2-167, looked up)
chain: ADIQRRDFLGMSLASVTAIGAIASLVAMKKTWDPLPSVVSAGFTTIDVANMQEGQFSTVEWRGKPVYILKRSKKEGFNEKRDFKVGESVFTTAIQICTHLGCIPTYQDEEKGFLCPCHGGRFTSDGVNIAGTPPPRPFDIPPFKIEGTKITFGEAGAEYKKMMAKA
growth OD595 in M63-maltose (T25-HP0221 (NifU)): 0.24 OD595 | growth OD595 in M63-maltose (HP0221-T25 (NifU)): 0.44 OD595 | growth OD595 in M63-maltose (T25-HP1492 (Nfu)): 0.17 OD595
